# Experimental data: article PMC2665906, “Structure of mouse IP-10, a chemokine” (Acta Crystallographica Section D: Biological Crystallography, 2008)
# B1: Mouse interferon-γ-inducible protein (IP-10) (natural protein, UniProt P17515 22-98, looked up)
# chain: IPLARTVRCNCIHIDDGPVRMRAIGKLEIIPASLSCPRVEIIATMKKNDEQRCLNPESKTIKNLMKAFSQKRSKRAP
# notes: Mouse IP-10 (CXCL10), cloned and expressed as described by Campanella et al. (2003) with some modifications; The model holds residues 1-68 (A), 1-67 (B), 4-68 (C) and 4-67 (D); No tag is mentioned; C-terminal residues beyond 67/68 were not seen in the electron density; also called mouse IP-10; CXCL10
# Target: the molecule itself
# Assay: crystal structure; hanging-drop vapour diffusion; protein 10 mg/ml in 50 mM Tris-HCl pH 8.0; 0.1 M Tris-HCl pH 8.0, 0.2 M CaCl2, 35% PEG 3350, 289 K; space group C2, four molecules in the asymmetric unit; 2.5 Å
protein,measurement,value
B1,stoichiometry N,4
